From patent US20030171276A1, “Preventives and remedies for chronic hepatitis” (priority 1999, published 2003)

B1: bLF: bovine lactoferrin protein (SERVA Electrophoresis GmbH) (protein, UniProt P24627 20-708, looked up)
Lactotransferrin: APRKNVRWCTISQPEWFKCRRWQWRMKKLGAPSITCVRRAFALECIRAIAEKKADAVTLDGGMVFEAGRDPYKLRPVAAEIYGTKESPQTHYYAVAVVKKGSNFQLDQLQGRKSCHTGLGRSAGWIIPMGILRPYLSWTESLEPLQGAVAKFFSASCVPCIDRQAYPNLCQLCKGEGENQCACSSREPYFGYSGAFKCLQDGAGDVAFVKETTVFENLPEKADRDQYELLCLNNSRAPVDAFKECHLAQVPSHAVVARSVDGKEDLIWKLLSKAQEKFGKNKSRSFQLFGSPPGQRDLLFKDSALGFLRIPSKVDSALYLGSRYLTTLKNLRETAEEVKARYTRVVWCAVGPEEQKKCQQWSQQSGQNVTCATASTTDDCIVLVLKGEADALNLDGGYIYTAGKCGLVPVLAENRKSSKHSSLDCVLRPTEGYLAVAVVKKANEGLTWNSLKDKKSCHTAVDRTAGWNIPMGLIVNQTGSCAFDEFFSQSCAPGADPKSRLCALCAGDDQGLDKCVPNSKEKYYGYTGAFRCLAEDVGDVAFVKNDTVWENTNGESTADWAKNLNREDFRLLCLDGTRKPVTEAQSCHLAVAPNHAVVSRSDRAAHVKQVLLHQQALFGKNGKNCPDKFCLFKSETKNLLFNDNTECLAKLGGRPTYEEYLGTEYVTAIANLKKCSTSPLLEACAFLTR
B2: lactoferrin: lactoferrin contained in breast milk (protein, UniProt P02788 20-710, looked up)
Lactotransferrin: GRRRSVQWCAVSQPEATKCFQWQRNMRKVRGPPVSCIKRDSPIQCIQAIAENRADAVTLDGGFIYEAGLAPYKLRPVAAEVYGTERQPRTHYYAVAVVKKGGSFQLNELQGLKSCHTGLRRTAGWNVPIGTLRPFLNWTGPPEPIEAAVARFFSASCVPGADKGQFPNLCRLCAGTGENKCAFSSQEPYFSYSGAFKCLRDGAGDVAFIRESTVFEDLSDEAERDEYELLCPDNTRKPVDKFKDCHLARVPSHAVVARSVNGKEDAIWNLLRQAQEKFGKDKSPKFQLFGSPSGQKDLLFKDSAIGFSRVPPRIDSGLYLGSGYFTAIQNLRKSEEEVAARRARVVWCAVGEQELRKCNQWSGLSEGSVTCSSASTTEDCIALVLKGEADAMSLDGGYVYTAGKCGLVPVLAENYKSQQSSDPDPNCVDRPVEGYLAVAVVRRSDTSLTWNSVKGKKSCHTAVDRTAGWNIPMGLLFNQTGSCKFDEYFSQSCAPGSDPRSNLCALCIGDEQGENKCVPNSNERYYGYTGAFRCLAENAGDVAFVKDVTVLQNTDGNNNEAWAKDLKLADFALLCLDGKRKPVTEARSCHLAMAPNHAVVSRMDKVERLKQVLLHQQAKFGRNGSDCPDKFCLFQSETKNLLFNDNTECLARLHGKTTYEKYLGPQYVAGITNLKKCSTSPLLEACEFLRK

Experiments:
[1] = system: recombinant E2 protein binding to CD81 expressed in Jurkat cells; test: Inhibition of binding of recombinant E2 protein to Jurkat cells (FACScan); format: cell-based, HCV; settings: 1 μg recombinant E2 protein preincubated with 10 μL of 1 mg/mL solution, room temperature 1 hour; FIG. 14
Procedure: An oligopeptide capable of binding to HCV E2 antigen is reacted with the HCV E2 antigen to study whether or not binding of CD81 expressed in Jurkat cells purchased from DAINIPPON PHARMACEUTICAL CO., LTD. to the HCV E2 antigen is inhibited. By the study, whether or not the selected oligopeptide inhibits adhesion of the HCV E2 antigen to CD81-positive cells can be estimated. The inhibitory activity for adhesion of CD81 to the IICV E2 antigen was assayed in accordance with the literature. The concrete description will be given hereinbelow.
The Jurkat cells were prepared in the same manner as in item (1), and suspended in WB so as to have a concentration of 4×10^6 cells/mL, to give a Jurkat cell suspension. […]
Hereinafter, in the same manner as in the item (1) above, the resulting product was reacted with an FITC-labeled anti-mouse IgG1 antibody, and thereafter the reaction mixture was suspended in 0.2 mL of a 10% neutral buffered formalin solution. As to the resulting product, E2 protein bound to Jurkat cells was analyzed by using FACScan.
One microgram of the recombinant E2 protein, and 10 μL of the TAPA148, bLF or bLF443 solution obtained in item (4) above were added to a 6 mm rounded-bottom tube and, and WB was then added thereto, to give 50 μL of a mixture. […] As to the resulting suspension, E2 protein bound to Jurkat cells was analyzed by using FACScan.

HCV = settings: cited from earlier work

| Molecule | inhibitory action of binding of E2 protein to Jurkat cells [1] | amount of virus in blood (HCV) | binding to HCV (HCV; lactoferrin contained in breast milk) |
| --- | --- | --- | --- |
| B1 | inhibitory action of binding of the E2 protein |  |  |
| B2 |  | reduces an amount of virus in blood | binds to HCV |
